The values that follow come from the supplement of paper PMC5998384.

For data set [1], the system named is HeLa Kyoto. The experiment in a line: solubility in G1/S (NP-40 vs SDS abundance) (log2 ratio); higher = more soluble. Conditions: cell cycle stage: G1/S.
The test system of data set [2] is HeLa Kyoto. The experiment in a line: melting temperature (median over replicates), in situ; higher = more thermally stable.
The test system of data set [3] is HeLa Kyoto. Nature of the data set: solubility change mitosis vs G1/S (difference of NP-40 vs SDS log2 ratios) (log2 ratio difference); higher = more soluble in mitosis.
The test system of data set [4] is HeLa Kyoto. The experiment in a line: thermal stability score vs G1/S (z-score of summed log2 fold changes over temperatures); higher = more thermally stable than in G1/S.
The mark [5] stands for this setting: cell cycle stage: early G1 (4.5 h after nocodazole release).
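Wherever melting temperature (median over replicates), in situ is given: HeLa Kyoto cells synchronized by double thymidine or nocodazole block, proteins quantified by TMT10plex mass spectrometry, three independent biological replicates.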
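Wherever solubility change mitosis vs G1/S (difference of NP-40 vs SDS log2 ratios) is given: synchronized HeLa Kyoto cells (double thymidine block for G1/S, nocodazole release for mitosis), protein amounts in NP-40 versus SDS lysates quantified by mass spectrometry, three biological replicates.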
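Wherever solubility in G1/S (NP-40 vs SDS abundance) is given: HeLa Kyoto cells arrested at G1/S by double thymidine block, proteins quantified by TMT10plex mass spectrometry in mild NP-40 versus SDS extracts, three biological replicates.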
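Wherever thermal stability score vs G1/S (z-score of summed log2 fold changes over temperatures) is given: synchronized HeLa Kyoto cells, proteins quantified by TMT10plex mass spectrometry, three biological replicates, mitosis taken 0.5 h after nocodazole release, G1/S directly after double thymidine block.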

For the sequence “MAAPSAGSWSTFQHKELMAADRGRRILGVCGMHPHHQETLKKNRVVLAKQLLLSELLEHLLEKDIITLEMRELIQAKVGSFSQNVELLNLLPKRGPQAFDAFCEALRETKQGHLEDMLLTTLSGLQHVLPPLSCDYDLSLPFPVCESCPLYKKLRLSTDTVEHSLDNKDGPVCLQVKPCTPEFYQTHFQLAYRLQSRPRGLALVLSNVHFTGEKELEFRSGGDVDHSTLVTLFKLLGYDVHVLCDQTAQEMQEKLQNFAQLPAHRVTDSCIVALLSHGVEGAIYGVDGKLLQLQEVFQLFDNANCPSLQNKPKMFFIQACRGDETDRGVDQQDGKNHAGSPGCEESDAGKEKLPKMRLPTRSDMICGYACLKGTAAMRNTKRGSWYIEALAQVFSERACDMHVADMLVKVNALIKDREGYAPGTEFHRCKEMSEYCSTLCRHLYLFPGHPPT [CASP2]”, in data set [1], the “solubility in G1/S (log2)” value came to 0.0545. Moreover, the melting temperature came out at 50.2 °C in data set [2] (cell cycle stage: G1/S) and 51.5 °C in data set [2] (cell cycle stage: mitosis). The “solubility change mitosis (log2)” value in data set [3] is -0.0504. Moreover, the thermal stability score in data set [4] (setting [5]) turned out to be 0.766; in data set [4] (cell cycle stage: mitosis), 3.33.
As for “MAAPSPSGGGGSGGGSGSGTPGPVGSPAPGHPAVSSMQGKRKALKLNFANPPFKSTARFTLNPNPTGVQNPHIERLRTHSIESSGKLKISPEQHWDFTAEDLKDLGEIGRGAYGSVNKMVHKPSGQIMAVKRIRSTVDEKEQKQLLMDLDVVMRSSDCPYIVQFYGALFREGDCWICMELMSTSFDKFYKYVYSVLDDVIPEEILGKITLATVKALNHLKENLKIIHRDIKPSNILLDRSGNIKLCDFGISGQLVDSIAKTRDAGCRPYMAPERIDPSASRQGYDVRSDVWSLGITLYELATGRFPYPKWNSVFDQLTQVVKGDPPQLSNSEEREFSPSFINFVNLCLTKDESKRPKYKELLKHPFILMYEERAVEVACYVCKILDQMPATPSSPMYVD [MAP2K4]”, in data set [1], the “solubility in G1/S (log2)” value was 0.456. Further, the melting temperature was 50.7 °C in data set [2] (cell cycle stage: G1/S) and 51.5 °C in data set [2] (cell cycle stage: mitosis). In addition, the “solubility change mitosis (log2)” value in data set [3] was found to be 0.0151. In addition, the thermal stability score stood at 0.539 in data set [4] (setting [5]) and 0.431 in data set [4] (cell cycle stage: mitosis).
Consider “MAAPVDLELKKAFTELQAKVIDTQQKVKLADIQIEQLNRTKKHAHLTDTEIMTLVDETNMYEGVGRMFILQSKEAIHSQLLEKQKIAEEKIKELEQKKSYLERSVKEAEDNIREMLMARRAQ [PFDN1]”, for which the “solubility in G1/S (log2)” value in data set [1] amounted to 0.242. In addition, the melting temperature in data set [2] (cell cycle stage: G1/S) is 52.9 °C; in data set [2] (cell cycle stage: mitosis) it was 52.4 °C. Further, in data set [3], the “solubility change mitosis (log2)” value was found to be 0.291. Besides, the thermal stability score in data set [4] (setting [5]) is -5.42; in data set [4] (cell cycle stage: mitosis), -7.79.
For the sequence “MAAQCVRLARRSLPALALSLRPSPRLLCTATKQKNSGQNLEEDMGQSEQKADPPATEKTLLEEKVKLEEQLKETVEKYKRALADTENLRQRSQKLVEEAKLYGIQAFCKDLLEVADVLEKATQCVPKEEIKDDNPHLKNLYEGLVMTEVQIQKVFTKHGLLKLNPVGAKFDPYEHEALFHTPVEGKEPGTVALVSKVGYKLHGRTLRPALVGVVKEA [GRPEL1]”, the “solubility in G1/S (log2)” value in data set [1] worked out at 0.661. For the same sequence, the melting temperature in data set [2] (cell cycle stage: G1/S) is 51.2 °C; in data set [2] (cell cycle stage: mitosis), 51 °C. Also, the “solubility change mitosis (log2)” value in data set [3] came to 0.707. Also, the thermal stability score in data set [4] (setting [5]) was -2.01; in data set [4] (cell cycle stage: mitosis), -2.29.
Consider “MAAQRPLRVLCLAGFRQSERGFREKTGALRKALRGRAELVCLSGPHPVPDPPGPEGARSDFGSCPPEEQPRGWWFSEQEADVFSALEEPAVCRGLEESLGMVAQALNRLGPFDGLLGFSQGAALAALVCALGQAGDPRFPLPRFILLVSGFCPRGIGFKESILQRPLSLPSLHVFGDTDKVIPSQESVQLASQFPGAITLTHSGGHFIPAAAPQRQAYLKFLDQFAE [OVCA2]”, for which the “solubility in G1/S (log2)” value in data set [1] was 0.171. The melting temperature in data set [2] (cell cycle stage: G1/S) was found to be 49.8 °C; in data set [2] (cell cycle stage: mitosis) it was 51.5 °C. In data set [3], the “solubility change mitosis (log2)” value was 0.0456. Also, the thermal stability score is -1.18 in data set [4] (setting [5]) and -0.0698 in data set [4] (cell cycle stage: mitosis).
Take “MAAQRRSLLQSEQQPSWTDDLPLCHLSGVGSASNRSYSADGKGTESHPPEDSWLKFRSENNCFLYGVFNGYDGNRVTNFVAQRLSAELLLGQLNAEHAEADVRRVLLQAFDVVERSFLESIDDALAEKASLQSQLPEGVPQHQLPPQYQKILERLKTLEREISGGAMAVVAVLLNNKLYVANVGTNRALLCKSTVDGLQVTQLNVDHTTENEDELFRLSQLGLDAGKIKQVGIICGQESTRRIGDYKVKYGYTDIDLLSAAKSKPIIAEPEIHGAQPLDGVTGFLVLMSEGLYKALEAAHGPGQANQEIAAMIDTEFAKQTSLDAVAQAVVDRVKRIHSDTFASGGERARFCPRHEDMTLLVRNFGYPLGEMSQPTPSPAPAAGGRVYPVSVPYSSAQSTSKTSVTLSLVMPSQGQMVNGAHSASTLDEATPTLTNQSPTLTLQSTNTHTQSSSSSSDGGLFRSRPAHSLPPGEDGRVEPYVDFAEFYRLWSVDHGEQSVVTAP [TAB1]”: the “solubility in G1/S (log2)” value in data set [1] was 0.302. Further, the values for the melting temperature in data set [2] (cell cycle stage: G1/S) and in data set [2] (cell cycle stage: mitosis) were 49.4 °C and 49.7 °C, respectively. For the same sequence, the “solubility change mitosis (log2)” value in data set [3] is -0.0812. Also, the thermal stability score in data set [4] (setting [5]) is -0.0541; in data set [4] (cell cycle stage: mitosis), 1.34.
With “MAARAGFQSVAPSGGAGASGGAGAAAALGPGGTPGPPVRMGPAPGQGLYRSPMPGAAYPRPGMLPGSRMTPQGPSMGPPGYGGNPSVRPGLAQSGMDQSRKRPAPQQIQQVQQQAVQNRNHNAKKKKMADKILPQRIRELVPESQAYMDLLAFERKLDQTIMRKRLDIQEALKRPIKQKRKLRIFISNTFNPAKSDAEDGEGTVASWELRVEGRLLEDSALSKYDATKQKRKFSSFFKSLVIELDKDLYGPDNHLVEWHRTATTQETDGFQVKRPGDVNVRCTVLLMLDYQPPQFKLDPRLARLLGIHTQTRPVIIQALWQYIKTHKLQDPHEREFVICDKYLQQIFESQRMKFSEIPQRLHALLMPPEPIIINHVISVDPNDQKKTACYDIDVEVDDTLKTQMNSFLLSTASQQEIATLDNKIHETIETINQLKTQREFMLSFARDPQGFINDWLQSQCRDLKTMTDVVGNPEEERRAEFYFQPWAQEAVCRYFYSKVQQRRQELEQALGIRNT [SMARCD1]”, the “solubility in G1/S (log2)” value in data set [1] was 0.347. Further, the figures for the melting temperature in data set [2] (cell cycle stage: G1/S) and in data set [2] (cell cycle stage: mitosis) were 47.4 °C and 49.3 °C, respectively. Besides, in data set [3], the “solubility change mitosis (log2)” value is -0.0288. Further, the thermal stability score was 0.481 in data set [4] (setting [5]) and 1.5 in data set [4] (cell cycle stage: mitosis).
